Usually pKd stands for −log10 of the Kd, conventionally taken in molar units.

Among the targets are HLA-A*11:01; HLA-A*68:01; HLA-A*03:01; HLA-A*31:01; HLA-A*33:01.
Holding throughout (assay): IEDB peptide-MHC binding, purified MHC/competitive/radioactivity; filed as Kd, often an IC50 or EC50 that approximates it; ≥ and ≤ were set here for values at or beyond the usual limits of such assays
Where [1] appears, read: source organism: Vaccinia virus WR.
[2] abbreviates: source organism: SARS coronavirus Tor2.
[3] abbreviates: source organism: Lassa virus Josiah.
[4] abbreviates: source organism: Dengue virus 2 Jamaica/1409/1983.
Where [5] appears, read: source organism: Dengue virus 4 Philippines/H241/1956.
The mark [6] stands for this setting: source organism: Mammarenavirus guanaritoense.
The mark [7] stands for this setting: source organism: Dengue virus 3 Martinique/1243/1999.
Where [8] appears, read: source organism: Dengue virus 1 Singapore/S275/1990.
The mark [9] stands for this setting: source organism: Dengue virus 1 Brazil/97-11/1997.
The mark [10] stands for this setting: source organism: Dengue virus 2 Peru/IQT2913/1996.

pKd: −log10 of the molar value.

Turning to FISDNKKEY, the pKd with HLA-A*11:01 (setting [1]) is no more than 4.11; in the test with HLA-A*68:01 (setting [1]), 5.15; in the test with HLA-A*03:01 (setting [1]) it was no more than 4.11; with HLA-A*31:01 (setting [1]), no more than 4.11; with HLA-A*33:01 (setting [1]) it was no more than 4.11.
In the case of FLELKRGIY, the pKd with HLA-A*11:01 (setting [1]) was 4.97; with HLA-A*68:01 (setting [1]), 5.73; with HLA-A*03:01 (setting [1]), no more than 4.11; with HLA-A*31:01 (setting [1]) it was 5.66; in the test with HLA-A*33:01 (setting [1]) it was 5.34.
The like results for FTSTNDKIK were, in that order, 7.23, 6.95, 5.92, 4.82 and no more than 4.11.
In the case of GALDTTSYR, the pKd with HLA-A*11:01 (setting [2]) is 7.58; in the test with HLA-A*68:01 (setting [2]), 7.16; with HLA-A*03:01 (setting [2]), 5.18; with HLA-A*31:01 (setting [2]) it was 7.06; in the test with HLA-A*33:01 (setting [2]), 5.85.
In the same order, the values of GFAAYNRYR are 5.18, no more than 4.57, 5.24, 6.09 and 5.01.
For GFEARIVDK, the pKd in the test with HLA-A*11:01 (setting [1]) is 5.04; with HLA-A*68:01 (setting [1]), 4.79; with HLA-A*03:01 (setting [1]), no more than 4.39; with HLA-A*31:01 (setting [1]) it was 5.80; with HLA-A*33:01 (setting [1]) it was 4.99.
As to GIPYCNYSK, the pKd with HLA-A*11:01 (setting [3]) was 6.93; with HLA-A*68:01 (setting [3]), 6.35; in the test with HLA-A*03:01 (setting [3]), 5.48; in the test with HLA-A*31:01 (setting [3]), no more than 4.35; in the test with HLA-A*33:01 (setting [3]), no more than 4.62.
For the sequence GLLLRKLTSK, in the test with HLA-A*03:01 (setting [4]), the pKd is 7.40.
GVAPGTAVLR: the pKd was 6.78 with HLA-A*11:01 (setting [2]); 7.36 with HLA-A*68:01 (setting [2]); 5.88 in the test with HLA-A*03:01 (setting [2]); 5.55 with HLA-A*31:01 (setting [2]); no more than 4.38 in the test with HLA-A*33:01 (setting [2]).
Turning to IISDMYDPR, the pKd in the test with HLA-A*11:01 (setting [2]) is 6.91; in the test with HLA-A*68:01 (setting [2]), 8.27; with HLA-A*03:01 (setting [2]) it was 4.89; with HLA-A*31:01 (setting [2]), 6.49; with HLA-A*33:01 (setting [2]) it was 5.87.
Consider IIVLFQRFLR, for which the pKd is 7.35 with HLA-A*11:01 (setting [1]); 8.52 with HLA-A*68:01 (setting [1]); 6.03 with HLA-A*03:01 (setting [1]); 8.88 with HLA-A*31:01 (setting [1]); 7.88 with HLA-A*33:01 (setting [1]).
In the same order, the values of ILAEYIRHR are 5.84, 7.82, 7.11, 7.87 and 7.32.
In the same order, the values of ISIISIRPR are 6.58, 7.36, no more than 4.62, 8.43 and 6.15.
The like results for ISSVLTILYY were, in that order, 6.81, 6.79, 6.25, 5.23 and 5.84.
For the sequence KFQPESPAR, in the test with HLA-A*31:01 (setting [5]), the pKd is 7.19.
KGLGHDFLR: the pKd is no more than 4.67 in the test with HLA-A*68:01 (setting [6]), 9.87 with HLA-A*31:01 (setting [6]) and no more than 4.11 with HLA-A*33:01 (setting [6]).
In the case of KISVQYNLSH, the pKd with HLA-A*11:01 (setting [3]) was 6.69.
Take KSGAIKVLK: the results for the pKd with HLA-A*11:01 (setting [7]), in the test with HLA-A*03:01 (setting [7]) and with HLA-A*31:01 (setting [7]) were 6.82, 6.98 and 8.05, respectively.
For the sequence KTVWFVPSIK, the pKd in the test with HLA-A*11:01 (setting [4]) is 7.23; with HLA-A*03:01 (setting [4]), 8.18.
LAMGIMILK: the negative logarithm of the Kd (pKd) is 8.02 in the test with HLA-A*11:01 (setting [8]), 7.51 with HLA-A*68:01 (setting [8]) and 7.58 in the test with HLA-A*03:01 (setting [8]).
With MALFLEEMLR, the values for the negative logarithm of the Kd (pKd) in the test with HLA-A*68:01 (setting [4]), with HLA-A*31:01 (setting [4]) and with HLA-A*33:01 (setting [4]) were 7.93, 7.71 and 7.57, respectively.
With MFAVGLLFR, the pKd in the test with HLA-A*68:01 (setting [9]) is 7.21; with HLA-A*31:01 (setting [9]), no more than 4.18; in the test with HLA-A*33:01 (setting [9]) it was 8.98.
Take MGANFRADR: the pKd with HLA-A*68:01 (setting [9]) is 7.77.
As for MSYSMCTGK, the pKd with HLA-A*11:01 (setting [4]) is 7.47; with HLA-A*68:01 (setting [4]), 7.09; with HLA-A*03:01 (setting [4]), 8.38.
With NKKPRICTR, the negative-log Kd (pKd) in the test with HLA-A*33:01 (setting [9]) is 5.53.
For the sequence QTVGPWHLGK, the pKd with HLA-A*11:01 (setting [5]) is 7.42.
Consider RMLINRFTMR, for which the values for the pKd in the test with HLA-A*03:01 (setting [10]), with HLA-A*31:01 (setting [10]) and with HLA-A*33:01 (setting [10]) were 7.06, 7.84 and 6.79, respectively.
Consider RTLGRNKRPR, for which the pKd with HLA-A*31:01 (source organism: Dengue virus 3 Sri Lanka/1266/2000) is 8.17.
In the case of RVSTGSQLAK, the pKd with HLA-A*11:01 (setting [9]) and in the test with HLA-A*03:01 (setting [9]) was 7.12 throughout.
With SLLGSALLK, the results for the pKd with HLA-A*11:01 (setting [5]) and with HLA-A*03:01 (setting [5]) were 7.67 and 8.46, respectively.
As to SMFEPEREK, the pKd with HLA-A*11:01 (setting [4]) was 5.94; with HLA-A*03:01 (setting [4]) it was 7.08.
For SMLNIMNRR, the values for the pKd in the test with HLA-A*31:01 (setting [9]) and in the test with HLA-A*33:01 (setting [9]) were 8.81 and 7.17, respectively.
In the case of TLITGNMSFR, the results for the pKd with HLA-A*68:01 (setting [4]) and with HLA-A*33:01 (setting [4]) were 7.91 and 6.54, respectively.
Turning to VLLGSFGCK, the pKd with HLA-A*03:01 (setting [9]) is 7.92.
VSTVQQLTK: in the test with HLA-A*11:01 (setting [4]), the negative logarithm of the Kd (pKd) is 6.22.
As to VYTQLCDHR, the pKd in the test with HLA-A*33:01 (setting [7]) is 5.72.

For the origin of these results see the Immune Epitope Database (IEDB).
